Protein production data for 6 sequences are collected here from a protein production outcome set (Wang et al. 2014).

This series can be described thus: label from the status in PepcDB records.

“MVEGSQEAKVAEILQKMEEMIGEEPKPQKLFSKVAPEWLERQMDERQFVMSLESIPEKYKHLIMIAVAAAVGSKMCTEVFTKIAKRRGVSEREIGEAILVARFALASTIFATVTPALEWLEGGDEE”: the protein production result is “failed”.
For the sequence “MVEKGKMVKISYDGYVDGKLFDTTNEELAKKEGIYNPAMIYGPVAIFAGEGQVLPGLDEAILEMDVGEEREVVLPPEKAFGKRDPSKIKLIPLSEFTKRGIKPIKGLTITIDGIPGKIVSINSGRVLVDFNHELAGKEVKYRIKIEEVVDDKKNIVKEIVKMYVPRLSDVKVTIRNGTVKIELPEFAPFIPNIQTAKMAIANEILKRLEDAEKVSFVETFERKKETKEENK”, the protein production result is given as “failed”.
In the case of “MVEPMTPRFKYTKASQENIQQLGNILEQCFVMSFGDSEIYVKGIGLENFRVIYREQKVAGGLAILPMGQWWGGQRVPMAGIAAVGIAPEYRGDGAAIALIQHTLQEISEQDIPISVLYPATQRLYRKAGYEQAGSSCVWEIPTDSIQIQHASLPLEPVVLKNNPIFHELYQQQAQLTHGYLDRHPAIWQGLNRTLDTETLYSYLIGDKDKPQGYIIFTQERTRDGSILRIRDWVTLSNPAVQSFWTFIANHRSQIDKVTWKSSVIDALTLLLPEQSATIRSQDRWMLRIVNVCKALEARGYPLGVEAELHLEVQDDLLATNQGKFILSVANGKSEVTKGGKGELQLDIKGLASLYTSLFTPRQLQLTGKLQATETALLKATQIFAGESPWMIDFF” it was “not failed”; in that of “MVERVASSEVANRLNEWYDTIKRQDIKKAAILKHDLQKAMDDMEEDQNVLLYYNLIDSRYKLLLEQYDESGTILESLKDQTERADTDNLLQYYYYFFSGLYEFNMNNFTHAIRLYHKAENHLTTIPDEIEHAEFHFQLAVAYQSIDQSFFSINHAEKALDIYLKQENYVSRIALTQMIIAANKLDLNQYLAAEKLYKKAILIAVDSNQTFIELLGYYNLGLCYEVQEKLEQARDCFEKALDFNFPQENKKETYLRIKYMLARVLFKMGFLQEGVKWFEDAVQLANETNDKIYQVKLQIIHAVYFDQKELSIDEGLKVLKEQSLWHDVEDLSFIAARFYKKEGFYQLASKYYEEGLNAQQKIPSLYEEVGSA”, “failed”; in that of “MVESKRTWKEKVHVESQVEERLRKNLTLKSREATKLQKKALKTTKKEFKLSKKNYKQSLKKHKLTLKTGKEPLSINHLLDKKKFVEQKKRKKAQKIAYKRTKKVDETRVVNQVKRETKEGLKREATQKVRTTLTQEDTLNEAMTLYEKTQQAKFNMRTALKTGKTVKNLSVKTAKDTYGLGNRLFNFSRGRGFQRTPKDFTLKKQLMKQLRNRAMRFKAAKEAKKAEQGIGLIRSFFNGQKTLGKVAALILKNPISWVVLLVLFLVFLLSGVASSTQKPAIVQEEEDLTASWTYFTKLDAQHTDDNNLFYSNIDDVLFYMNYRYDDFKLLDMDSTGTKNFETILSELWTALNGKKPDYQLKTMQSLETDKKSSYFIEEEQAKHYQEIKKELGYQTLDDLLSFPVKTDALIVNKRYGYDKSKEKLTLYKGIDVLIEDNQPFHSPMNGQIVSVPDTETLVIEKEKVARLTIRGVNTLRLTKGMDVEEGTFLGNTKNSTVTFQYEKYKKETKDWFFVNPAFYFPRVTYTQTTLLGSAEFSPGASVEKRAQAVYDYLSKKGYTKEGISAILGNFSVESGINPKRAEGDYLNPPVGAHGNSWDEPSWLAMGGPQIYGGRFPNILHRGLGLGQWTDTADGGRRHTLLLDYAKGKNKKWYDLQLQLDFIFDGDAPGSRTAADNVARSKVAATIPELTTYYLTVWEGNPGDKLGERIQAAQNWFTFFSRSGTPIGGSGSEVFAQYKEKMQPLPTDRETKAGQGWPGNAYAPGNCTWYVFNRFAQLGKSIYPTMGNANQWVHNYSQTPGATLESAPKKGDAVIFTNGVAGSSTQYGHVAYVEHVNSDGSFVISEMNVSGEYSMNWRVLKKEAGEYFMRLN”, “failed”.
In the case of “MVFFHKKIILNFIYSLMVAFLSHGVLLKADGMAKKQTLLVGERLVWDKLTLLGFLEKNHIPQKLYYNLSSQDKELSAEIQSNVTYYTLRDANNTLIQALIPISQDLQIHIYKKGEDYFLDFIPIIFTRKEKTLLLSLQTSPYQDIIKATNDPLLANQLMNAYKKSVPFKRLVKNDKIAIVYTRDYRVGQAFGQPTIKMAMVSSRSNQYYLFSHSNGHYYDSKAQEVAGFLLETPVKYTRISSPFSYGRFHPVLKVRRPHYGVDYAAKHGSLIHSASDGRVGFMGVKAGYGKVVEIHLNELRLVYAHMSAFANGLKKGSFVKKGQIIGRVGSTGLSTGPHLHFGVYKNSRPINPLGYIRTAKSKLHGKQREVFLEKAQRSKQKLEELLKTHSFEKNSFYLLEGF” it was “failed”.
